Laboratory results from patent US8765433B2, “Alcohol dehydrogenases (ADH) useful for fermentive production of lower alkyl alcohols” (priority 2009, dated 2014).

Assays:
[1] = substrate: CC(C)C=O; test: isobutyraldehyde reduction kinetics (A340, initial rates); assay type: biochemical, horse; conditions: other: 30° C., pH 7.0, 200 μM NADH
[2] = substrate: CC(C)CO; test: isobutanol oxidation kinetics; assay type: biochemical, horse; conditions: other: 30° C., pH 8.8, 7.5 mM NAD
Experimental: (§1) As a routine practice, the crude extracts and purified proteins were assayed for butanol oxidation activity, in order to ensure that the recombinant proteins were active throughout the purification process. […] Alcohol oxidation activities were carried out in 50 mM sodium phosphate buffer at pH 8.8 and aldehyde reduction reactions were assayed in 190 mM potassium phosphate buffer at pH 7.0. Depending on the nature of reaction being carried out, the enzyme and cofactor stocks were diluted in the reaction buffers at the respective pHs. Either buffer or cell extract prepared from the proprietary E. coli strain (with no ADH plasmid) was used as the negative control for assays with purified protein and cell-free extracts, respectively.
(§2) Kinetic constants of the ADH enzymes were calculated and compared to identify those candidate ADH enzymes with the most desirable properties for the conversion of isobutyraldehyde to isobutanol in the last step of the engineered pathway for isobutanol production. The assays for determining the kinetic constants were carried out using initial rates from the assays described above. […] The concentration of a given enzyme was such that it was conducive for the measurement of initial velocities over a 1-min time course. […] The kcat/KM is derived from the individual numbers of kcat and KM and not an experimentally determined value. […]

[3] = substrate: CC(C)C=O; test: isobutyraldehyde reduction kinetics (A340, initial rates); assay type: biochemical, Clostridium beijerinckii; conditions: other: 30° C., pH 7.0, NADPH specific
[4] = substrate: NC(=O)C1=CN([C@@H]2O[C@H](COP(=O)(O)OP(=O)(O)OC[C@H]3O[C@@H](n4cnc5c(N)ncnc54)[C@H](O)[C@@H]3O)[C@@H](O)[C@H]2O)C=CC1; test: purified protein, by the assay type; conditions: other: cofactor; 30.0 °C
[5] = substrate: CC(C)C=O; test: purified protein, by the assay type; assay type: biochemical, Beijerinckia indica; conditions: other: 30° C., pH 7.0, 200 μM NADH
[6] = substrate: CC(C)CO; test: isobutanol oxidation kinetics; assay type: biochemical, Beijerinckia indica; conditions: other: 30° C., pH 8.8, 7.5 mM NAD
Experimental: as §1, §2

[7] = substrate: CC(C)C=O; test: isobutyraldehyde reduction kinetics (A340, initial rates); assay type: biochemical, Saccharomyces cerevisiae; conditions: other: 30° C., pH 7.0, NADPH specific
[8] = substrate: CC(C)C=O; test: as above; assay type: biochemical, Thermus sp. ATN1; conditions: other: 30° C., pH 7.0, NADH specific
[9] = substrate: CC(C)C=O; test: as above; assay type: biochemical, Phenylobacterium zucineum HLK1; conditions: other: 30° C., pH 7.0, NADH specific
Text: (§3) This example describes preparation of ADH-gene constructs for over-expression/purification and measurement of enzyme activities using a time-course assay. Horse-liver ADH (HLADH; A-6128) was purchased from Sigma. Achromobacter xylosoxidans SadB (SadB), Saccharomyces cerevisiae ADH6 (ScADH6) and ADH7 (ScADH7), Entamoeba histolytica ADH1 (EhADH1), Bos Taurus Aldehyde Reductase (BtARD), Beijerinckia indica subsp. Indica ATCC 9039 (BiADH), Clostridium beijerinckii ADH (CbADH), Rana perezi ADH8 (RpADH8), Rattus norvegicus ADH1 (RnADH1), Thermus sp. ATN1 ADH (TADH), Phenylobacterium zucineum HLK1 ADH (PzADH), Methylocella silvestris BL2 ADH (MsADH), Acinetobacter baumannii AYE ADH (AbADH), Geobacillus sp. WCH70 ADH (GbADH), Vanderwaltozyma polyspora DSM 70294 ADH (VpADH), Mucor circinelloides ADH (McADH), and Rhodococcus erythropolis PR4ADH (ReADH) were the candidates for which subclones were prepared for protein expression and purification.
(§4) As a routine practice, the crude extracts and purified proteins were assayed for butanol oxidation activity, in order to ensure that the recombinant proteins were active throughout the purification process. […] Alcohol oxidation activities were carried out in 50 mM sodium phosphate buffer at pH 8.8 and aldehyde reduction reactions were assayed in 190 mM potassium phosphate buffer at pH 7.0. […]
(§5) Kinetic constants of the ADH enzymes were calculated and compared to identify those candidate ADH enzymes with the most desirable properties for the conversion of isobutyraldehyde to isobutanol in the last step of the engineered pathway for isobutanol production. […] The kcat/KM is derived from the individual numbers of kcat and KM and not an experimentally determined value. […]
(§6) Seven additional candidate ADH enzymes were synthesized, expressed, and assayed according to methods such as described in Example 2. […] A comparison of KM, KI, and kcat/KM for each candidate enzyme as compared to the same parameter for SadB are given in Table 9 as a percentage of the values determined (Table 7) for SadB. […]

[10] = substrate: CC(C)C=O; test: as above; assay type: biochemical, Methylocella silvestris BL2; conditions: other: 30° C., pH 7.0, NADH specific
Text: as §3, §4, §5, §6

B1: horse liver ADH (HLADH), SEQ ID NO: 21 (Equus caballus) (protein)
chain: MSTAGKVIKCKAAVLWEEKKPFSIEEVEVAPPKAHEVRIKMVATGICRSDDHVVSGTLVTPLPVIAGHEAAGIVESIGEGVTTVRPGDKVIPLFTPQCGKCRVCKHPEGNFCLKNDLSMPRGTMQDGTSRFTCRGKPIHHFLGTSTFSQYTVVDEISVAKIDAASPLEKVCLIGCGFSTGYGSAVKVAKVTQGSTCAVFGLGGVGLSVIMGCKAAGAARIIGVDINKDKFAKAKEVGATECVNPQDYKKPIQEVLTEMSNGGVDFSFEVIGRLDTMVTALSCCQEAYGVSVIVGVPPDSQNLSMNPMLLLSGRTWKGAIFGGFKSKDSVPKLVADFMAKKFALDPLITHVLPFEKINEGFDLLRSGESIRTILTF
notes: purchased Sigma A-6128
[1]
  Km: 100 µM
  kcat: 8 s⁻¹
  kcat/Km: 82000 M⁻¹ s⁻¹
[2]
  Km: KM = 0.4 mM] mM

B2: Clostridium beijerinckii ADH (CbADH), SEQ ID NO: 29 (Clostridium beijerinckii) (protein)
chain: MKGFAMLGINKLGWIEKERPVAGSYDAIVRPLAVSPCTSDIHTVFEGALGDRKNMILGHEAVGEVVEVGSEVKDFKPGDRVIVPCTTPDWRSLEVQAGFQQHSNGMLAGWKFSNFKDGVFGEYFHVNDADMNLAILPKDMPLENAVMITDMMTTGFHGAELADIQMGSSVVVIGIGAVGLMGIAGAKLRGAGRIIGVGSRPICVEAAKFYGATDILNYKNGHIVDQVMKLTNGKGVDRVIMAGGGSETLSQAVSMVKPGGIISNINYHGSGDALLIPRVEWGCGMAHKTIKGGLCPGGRLRAEMLRDMVVYNRVDLSKLVTHVYHGFDHIEEALLLMKDKPKDLIKAVVIL
notes: hexa-histidine (pBADHisA) (N); made in house; host or cells: E. coli (BL21-CodonPlus or a proprietary E. coli strain)
[3]
  Km: 1500 µM
  kcat: 123 s⁻¹
  kcat/Km: 85000 M⁻¹ s⁻¹

B3: Beijerinckia indica subsp. Indica ATCC 9039 ADH (BiADH), SEQ ID NO: 31 (Beijerinckia indica subsp. indica ATCC 9039) (protein)
chain: MKALVYRGPGQKLVEERQKPELKEPGDAIVKVTKTTICGTDLHILKGDVATCKPGRVLGHEGVGVIESVGSGVTAFQPGDRVLISCISSCGKCSFCRRGMFSHCTTGGWILGNEIDGTQAEYVRVPHADTSLYRIPAGADEEALVMLSDILPTGFECGVLNGKVAPGSSVAIVGAGPVGLAALLTAQFYSPAEIIMIDLDDNRLGLAKQFGATRTVNSTGGNAAAEVKALTEGLGVDTAIEAVGIPATFELCQNIVAPGGTIANVGVHGSKVDLHLESLWSHNVTITTRLVDTATTPMLLKTVQSHKLDPSRLITHRFSLDQILDAYETFGQAASTQALKVIISMEA
[4]
  Km: KM (NADH) = 0.06 mM mM
[5]
  Km: 200 µM
  kcat: 283 s⁻¹
  kcat/Km: 1.25e+06 M⁻¹ s⁻¹
[6]
  Km: KM = 4.7 mM] mM

B4: Saccharomyces cerevisiae ADH6 (ScADH6), SEQ ID NO: 22 (Saccharomyces cerevisiae S288C) (protein)
chain: MSYPEKFEGIAIQSHEDWKNPKKTKYDPKPFYDHDIDIKIEACGVCGSDIHCAAGHWGNMKMPLVVGHEIVGKVVKLGPKSNSGLKVGQRVGVGAQVFSCLECDRCKNDNEPYCTKFVTTYSQPYEDGYVSQGGYANYVRVHEHFVVPIPENIPSHLAAPLLCGGLTVYSPLVRNGCGPGKKVGIVGLGGIGSMGTLISKAMGAETYVISRSSRKREDAMKMGADHYIATLEEGDWGEKYFDTFDLIVVCASSLTDIDFNIMPKAMKVGGRIVSISIPEQHEMLSLKPYGLKAVSISYSALGSIKELNQLLKLVSEKDIKIWVETLPVGEAGVHEAFERMEKGDVRYRFTLVGYDKEFSD
notes: as for B2
[7]
  Km: 600 µM
  kcat: 47 s⁻¹
  kcat/Km: 81000 M⁻¹ s⁻¹

B5: Thermus sp. ATN1 ADH (TADH), SEQ ID NO: 33 (Thermus sp. ATN1) (protein)
chain: MRAVVFENKERVAVKEVNAPRLQHPLDALVRVHLAGICGSDLHLYHGKIPVLPGSVLGHEFVGQVEAVGEGIQDLQPGDWVVGPFHIACGTCPYCRRHQYNLCERGGVYGYGPMFGNLQGAQAEILRVPFSNVNLRKLPPNLSPERAIFAGDILSTAYGGLIQGQLRPGDSVAVIGAGPVGLMAIEVAQVLGASKILAIDRIPERLERAASLGAIPINAEQENPVRRVRSETNDEGPDLVLEAVGGAATLSLALEMVRPGGRVSAVGVDNAPSFPFPLASGLVKDLTFRIGLANVHLYIDAVLALLASGRLQPERIVSHYLPLEEAPRGYELFDRKEALKVLLVVRG
[8]
  Km: 1300 µM
  kcat: 15 s⁻¹
  kcat/Km: 11000 M⁻¹ s⁻¹

B6: Phenylobacterium zucineum HLK1 ADH (PzADH), SEQ ID NO: 34 (Phenylobacterium zucineum HLK1) (protein)
chain: MKALVYGGPGQKSLEDRPKPELQAPGDAIVRIVKTTICGTDLHILKGDVATCAPGRILGHEGVGIVDSVGAAVTAFRPGDHVLISCISACGKCDYCRRGMYSHCTTGGWILGNEIDGTQAEYVRTPHADTSLYPVPAGADEEALVMLSDILPTGFECGVLNGKVAPGGTVAIVGAGPIGLAALLTAQFYSPAEIIMIDLDDNRLGIARQFGATQTINSGDGRAAETVKALTGGRGVDTAIEAVGVPATFELCQDLVGPGGVIANIGVHGRKVDLHLDRLWSQNIAITTRLVDTVSTPMLLKTVQSRKLDPSQLITHRFRLDEILAAYDTFARAADTQALKVIIAA
[9]
  Km: 100 µM
  kcat: 30 s⁻¹
  kcat/Km: 321000 M⁻¹ s⁻¹

B7: Saccharomyces cerevisiae ADH7 (ScADH7), SEQ ID NO: 23 (Saccharomyces cerevisiae S288C) (protein)
chain: MLYPEKFQGIGISNAKDWKHPKLVSFDPKPFGDHDVDVEIEACGICGSDFHIAVGNWGPVPENQILGHEIIGRVVKVGSKCHTGVKIGDRVGVGAQALACFECERCKSDNEQYCTNDHVLTMWTPYKDGYISQGGFASHVRLHEHFAIQIPENIPSPLAAPLLCGGITVFSPLLRNGCGPGKRVGIVGIGGIGHMGILLAKAMGAEVYAFSRGHSKREDSMKLGADHYIAMLEDKGWTEQYSNALDLLVVCSSSLSKVNFDSIVKIMKIGGSIVSIAAPEVNEKLVLKPLGLMGVSISSSAIGSRKEIEQLLKLVSEKNVKIWVEKLPISEEGVSHAFTRMESGDVKYRFTLVDYDKKFHK
notes: as for B2
[7]
  Km: 300 µM
  kcat: 36 s⁻¹
  kcat/Km: 120000 M⁻¹ s⁻¹

B8: Methylocella silvestris BL2 ADH (MsADH), SEQ ID NO: 35 (Methylocella silvestris BL2) (protein)
chain: MKALVYHGPGQKALEERPKPQIEASGDAIVKIVKTTICGTDLHILKGDVATCAPGRILGHEGVGIIDSVGAGVTAFQPGDRVLISCISSCGKCDYCRRGLYSHCTTGGWILGNEIDGTQAEYVRTPHADTSLYRIPAGADEEALVMLSDILPTGFECGVLNGKVEPGSTVAIVGAGPIGLAALLTAQFYAPGDIIMIDLDDNRLDVARRFGATHTINSGDGKAAEAVKALTGGIGVDTAIEAVGIPATFLLCEDIVAPGGVIANVGVHGVKVDLHLERLWAHNITITTRLVDTVTTPMLLKTVQSKKLDPLQLITHRFTLDHILDAYDTFSRAADTKALKVIVSA
[10]
  Km: 60 µM
  kcat: 33 s⁻¹
  kcat/Km: 530000 M⁻¹ s⁻¹
